# Reference: the DeepSol protein solubility set
# Assay: soluble on expression in E. coli; label from the status in PepcDB or PDB records
row,Sequence,soluble on expression in E. coli
1,MSEQSICQARASVMVYDDTSKKWVPIKPGQQGFSRINIYHNTASSTFRVVGVKLQDQQVVINYSIVKGLKYNQATPTFHQWRDARQVYGLNFASKEEATTFSNAMLFALNIMNSQEGGPSTQRQVQNGPS,soluble
2,MSERIASVERTTSETHISCTIDLDHIPGVTEQKINVSTGIGFLDHMFTALAKHGGMSLQLQCKGDLHIDDHHTAEDCALALGEAFKKALGERKGIKRYGYAYAPLDESLSRAVIDISSRPYFMCHLPFTREKVGDLSTEMVSHLLQSFAFAAGVTLHIDSIRGENNHHIAESAFKALALAIRMAISRTGGDDVPSTKGVLAL,soluble
3,MSERIVPSGDVELWSDDFGDPADPALLLVMGGNLSALGWPDEFARRLADGGLHVIRYDHRDTGRSTTRDFAAHPYGFGELAADAVAVLDGWGVDRAHVVGLSMGATITQVIALDHHDRLSSLTMLLGGGLDIDFDANIERVMRGEPTLDGLPGPQQPFLDALALMNQPAEGRAAEVAKRVSKWRILSGTGVPFDDAEYARWEERAIDHAGGVLAEPYAHYSLTLPPPSRAAELREVTVPTLVIQAEHDPIAPAPHGKHLAGLIPTARLAEIPGMGHALPSSVHGPLAEVILAHTRSAA,soluble
4,MSERLESRLAKVPKVTPEDIGNWLAEAETESELTEELNANAVFYLALSFAYESIAADAARYFSYTDGEESVDKSMIFANYKKLSADALKKYRKYRRGKGTHQTFAKRADGR,not soluble
5,MSERRDCIVCTSGTCGRSWVFFRSGSGRRCIRSIFRESEGRTFGSNRISGSADHWTAIVERRKSRERGSKMKKEMTNDMTVGSPTKLIIQFMIPMCLGNVFQQFYNIADS,not soluble
6,MSERSVSKQDQEKRWYTVLAPEEFDRAELGETLAEEPDQVYDRTIQAALSDVRDGGDNNIKLTFQIDDVGSDSASTQFVQAELTRDYQRSLVRRGSSKVAVTVTVLTTDDYRVRIQPVAYTTKQADQSQQHAIRRTMIDLVEEAGEERTFEALLNSIIEGRLSSAIYDEANTIYPLRRVEVEKATLEAHPEEVHEEEETAVDFSGELEHHHHHH,soluble
7,MSEVLTRGFRFRPADEEVTDYLMRKTQSPEFSCFIKTIDLYDKDPWVLGHVRDPCYNHYEWYYFVKKNPLGNEYLDKPRLNGFEHPRLKWDVLKQIHDALSSGQNVPPSVFTYGFRFHPTDQELLSLYLTPKAHSPDFSCFIRERESYMPWSHGFLNMLDLLFTRTVNGTTL,soluble
8,MSFETKPNYLLLTNPDTPLSVCTSPYYSPSGKTASIPSSEASKPEGTNGQWSHLPTGATYVTDEFSSEFQIQNGSTAAQSGNANNYADPLSHRRYFNNVNGYNHHQFYDTASQASVSSPATSVTSSLSPPDSLSNGHTTQRHHIGKAISFCKVCGDKASGYHYGVTSCEGCKGFFRRSIQRKIDYRCLKQQVCEIKRESRNRCQYCRFKKCLDSGMSKDSVRQMKFRNAMRDDKSPDSVFVPEISTLERQEEVDAVYEAVLRAHTTFSFYTDIKIRSIVARPFNVRINEDSKMNRLNAWQIYAHEIDVDIKEVVNFVKEIPKFNFINGNDKAVLLRKNAFPLYLLRIVRGMSNRGLMLRDGRLIDFKSLQLLYGSLADEMLAFANHIITIGCTDGDIALFIVLILCQPLTTEQQFSTNFKSQLQLLEMFDFYKKVLFQKMTCRIDGCDTYKQLMKCIHELNRLNELHKQQLNILRENLSFLNLPPLVVEMFQLSTLPLPVNHNNQENQYTPAPEHQSPQPQQPTPNQQQTPVHC,not soluble
9,MSFIDPYQHIIVEHQYSHKFTVVVLRATKVTKGAFGDMLDTPDPYVELFISTTPDSRKRTRHFNNDINPVWNETFEFILDPNQENVLEITLMDANYVMDETLGTATFTVSSMKVGEKKEVPFIFNQVTEMVLEMSLEV,soluble
10,MSGAGHSLNSDPVTTIATSSSEPVTSPSSASHVPVQTAPASHGAPSSVASQPPASVDGKAGAPDEARTASSASNPQGSEHPGSVDPAATTTAATTSASTTSITSTAATTTTTTTTGTTATGRVSPTIPPETLFHDAIKRCNNCLFLIRKLRNKQDHIARLFLDTSGNDQAEFNSAFQNYKDFGLMVHEVMMFYDKLDHIARHLPKALPPIDNINLMRTLYTQEHTMCHININNLLEKMIDCGNWNEGNFQTFFYLSELLRCGSTRKYSNLPEQRLVPPAMFHSQATNSHAAFEHAFNGLRKEIANKSLGIYPKVLQRTTCSLIIEFLFGCGGAKPGEKNTDKEIVYTIKFLIIERNGSIEYINIMAPTEDWHMVNDYAIPTINPFAPSRYEVYRRLTKQANIHLFNCFAQNRWTAGTLFHFISLYGKFRELFTTKCRSCKQVLSRKNFLPPLIFDIRNPNNAAHEVCR,not soluble
11,MSGDDYMGAMALLGIKPDTDPLSIKRAYRRLLSRHHPDKIAGSGANAQQVRVATEKTSELHNAYRVVKARRGFALEHHHHHH,not soluble
12,MSGEGMTAVSEPVQLTVPQMLAQLQGTDTSLRYYAAWWLGKFGLETATAAERQAIVSALIAALADEADRTELGGYPLRRNAARALGKLGDRQAVPALIECLRCEDFYVREAAAIALGQLGDPRAIAPLQSLLEGGVAMARLVPGRPHLVQPVEAVIESLGHLGATEAIALIEPFLAHEMPRVQFAAARALFQLTGDAVYGDRLLAALNSEDVQLRRTALLDLGAMGYLPAAEAILQAGVEASFKLIALHGILGQQLRQAAPAEQTLSLFQGLDQLLLEHHHHHH,soluble
13,MSGESVIEFTGFIKACRLFRENRLAEAEAVCTNLLRKNPLDQATWALKMQCLSDSTYVDELENEDMGLAETFLDQNVIAPNARPGTSFARPKTSAKGVNPILRPTTNAGRPLSGVVRPQSSFKSGSMDQAVRTARTAKTARAVSSTSARNMRLGTASMAAGADGEFVNLARLNIDKYAADPQVNRQLFEYVFYYLNDIRVAHQIAGTASKAAGFEDYYWKNQLAKCYLRLGMLQDATKQLQSSLEQKKLIETFALLSKAYNRVDQPMAALKTYSAGLEVFPENVTMLTGMARVQEALGEYDESVKLYKRVLDAESNNIEAIACVATTYYYGGKPELAMRYYRRILQMGVSSPELFLNIGLCCMAAQQFDFALSSILRAQSTMTDDVAADVWYNIGQILVDIGDLVSAARSFRIALSHDPDHSESLVNLGILKHREGKIDEARSLYSSATSKNPYMFEGNYNLGLVSFTQGKYHECRELIEKALAAFPEHEHCKKILNHLKPLYESI,not soluble
14,MSGFIPGSTTGSMLTAISDTHGTDNHRLTGRTLDAVREADHVLHAGDFMTEQVLDAIDAESDELTGVVGNNDRPAVRARLSDVATVSWEELTIVVVHGHEHTETALGMLARQENADIVVVGHSHKPVLTDFGGWTLVNPGSYADPRRYQPAHAELDVMAGDVRVRLRSPDGTPISTTIVERLEHHHHHH,not soluble
15,MSGGKLPEGWATSTINEMCNLNPKLKLDDDLDVGFMPMAGVPTTYLGKCNFETKKWSEVKKGFTQFQNDDVIFAKITPCFENGKAVVIKEFPNGYGAGSTEYYVLRSINGLINPHWLFALVKTKDFLTNGALNMSGSVGHKRVTKEFLENYGVPVPPLAEQKVIAEKLDTLLAQVDSTKARLEQIPQILKRFRQSVIVAAVNGQLTKELHKKNKFKLTELNISIPSLWKISEIGQFADVKGGKRLPKGESLIAENTGFPYIRAGQLKNGTVLPEGQLYLEEYIQKSISRYTVSSGDLYITIVGACIGDAGIIPDVYNNANLTENAAKICNLNENIFNRFLSLWLRSSYLQDIINSEIKSGAQGKLALARIKSLPLILPPLQEQHEIVRRVEQLFAYADTIEKQVNNALTRVNSLTQSILAKAFRGELTAQWRAENPELISGENSAAALLEKIKAERAASGGKKTSRKKA,not soluble
16,MSGKNEADSKDTGWEQIKDKGKIVVATSGTLYPTSYHDTDSGSDKLTGYEVEVVREAAKRLGLKVEFKEMGIDGMLTAVNSGQVDAAANDIDVTKDREEKFAFSTPYKYSYGTAIVRKDDLSGIKTLKDLKGKKAAGAATTVYMEVARKYGAKEVIYDNATNEQYLKDVANGRTDVILNDYYLQTLALAAFPDLNITIHPDIKYMPNKQALVMKKSNAALQKKMNEALKEMSKDGSLTKLSKQFFNKADVSKKIDADVQDVDLLEHHHHHH,soluble
17,MSGKVVRPSAALLEVFKSWQGGAIRVQRNEKLKTRLDVILDRPEKNNCLSGEMMKQFGEHTELFSDDQNAIIVVSGVGKSFCSGADLGLIKDISDQKLGVQMFEYMSSILSLLHSSPAISIAKIHGHALGGATEICSSTDIRIAHSGSKIAFFQSKMGIVPSWGGAEYMEGIMGRGRALAAMGRANVMSAEEAKDQGYVDYVYKSEDEAENFINQVASAGLKVTRAQKAMLNAVKIGKTEQKQVLEAVWNGETHRNALQKQLEAVVKK,not soluble
18,MSGLQGKIADAVKARGYQIMTSPDKAYYWIQANVLKADKMDLRESQGWLSRGYEGAAVGAALGGGITAYNTGSAGTTLGVGLATGLIGMAADAMVEDINYTMITDVQIAERTRTSVRTDNVAALRQGTSGSKIQTSTETGNQHKYQTRVVSSANQVNLKFEEAKPHLEDQLAKSIANIL,not soluble
19,MSGSYDEASEEITDSFWEVGNYKRTVKRIDDGHRLCNDLMSCVQERAKIEKAYAQQLTDWAKRWRQLIEKGPQYGSLERAWGAMMTEADKVSELHQEVKNSLLNEDLEKVKNWQKDAYHKQIMGGFKETKEAEDGFRKAQKPWAKKMKELEAAKKAYHLACKEERLAMTREMNSKTEQSVTPEQQKKLVDKVDKCRQDVQKTQEKYEKVLEDVGKTTPQYMEGMEQVFEQCQQFEEKRLVFLKEVLLDIKRHLNLAENSSYMHVYRELEQAIRGADAQEDLRWFRSTSGPGMPMNWPQFEEWNPDLPHTTAKKEKQPKKAEGATLSNATGAVESTSQAGDRGSVSSYDRGQTYATEWSDDESGNPFGGNEANGGANPFEDDAKGVRVRALYDYDGQEQDELSFKAGDELTKLGEEDEQGWCRGRLDSGQLGLYPANYVEAI,soluble
20,MSGVRMIDRWEEDNKMFLRLYIKERVLPTIYGSILGDLVGVPVEFKKRGSFFVEDIIGYGTYNQPAGTWSDDTSLTLCLIENIVEEGTIKSLMEKFVNYQDKGYMTPYGQMFDIGGATAQAIGRFKAGCLPQNCGGQSEYDNGNGAIMRISPLAFLFDNEFDFVKKAEVIKQYTEITHAHPRAIVGSIIYIELLLRLYHNNTLEKSIKDILDLFEENFPKNHIYMDEFKYYKRIFDSNFFNVPEEQILSDGYVVHTLEAAIWCVGNTKNFKEAILKAVNLGGDTDTVGVITGAIAGMYYKMDEIPQDWLNKIAKKQDIDELINKFYKYCADKAVIEKYGSL,not soluble
21,MSHAIQIREAHFPGRAPIDAYGNGGFRFADMSHRGSIICIPSGIYGIDMTGPVPTQEDISRVLEESDQIEVLLIGTGVELLRLPEELRVLLWEKRISSDTMSTGAAVRTFNVLLAEDRAVAALLFAVE,soluble
22,MSHHHHHHAGIFTFEEPVTHVSESIGIMEVKVLRTSGARGNVIVPYKTIEGTARGGGEDFEDTCGELEFQNDEIVKIITIRIFDREEYEKECSFSLVLEEPKWIRRGMKGGFTITEEYDDKQPLTSKEEEERRIAEMGRPILGEHTKLEVIIEESYEFKSTVD,soluble
